Assay results from publication PMC10031466, “The ROK kinase N-acetylglucosamine kinase uses a sequential random enzyme mechanism with successive conformational changes upon each substrate binding” (The Journal of Biological Chemistry, 2023).

B1: N-acetylglucosamine kinase (PsNagK) (Plesiomonas shigelloides 302-73) (protein)
chain: MYYGFDIGGTKIEFGAFDADLVRVARERVATPTESYAAFLDAIVTLVNNADAEFGVKGTVGIGIPGIADVETGKLLTSNIPAAMGHTLQRDLEERLQRPVKIENDANCFALSEAWDEDLRGEPSVLGLILGTGVGGGLIFNGKVHSGRANIAGEIGHTRLPYDALKLLGMENAPIFPCGCKNSGCIDNYLSGRGFEQLYDHYFSEKLSAPEIIAHYEQGERRAVQHVERFMELLAICLANIFTCLDPHVVVLGGGLSNFELIYQELPKRLPAHLLHVAKLPKIIKARHGDAGGVRGAAFLNLA
notes: His-tagged protein
B2: N-acetylglucosamine kinase (NagK) (Vibrio vulnificus CMCP6) (protein)
chain: MYYGFDVGGTKIEFGAFNEKLERVATERVPTPTDDYPLLLETIAGLVAKYDQEFACEGKIGLGLPGMEDADDATVLTVNVPAAKGKPLRADLEAKIGRSVKIENDANCFALSEAWDEELQDAPSVMGLILGTGFGGGLIYEGKVFSGRNNVAGELGHMRLPLDAWFHLGDNAPLLGCGCGKKGCLDSYLSGRGFELLYAHYYGEEKKAIDIIKANAAGDEKAAEHVERFMELLAICFGNIFTANDPHVVALGGGLSNFELIYEEMPKRVPKYLLSVAKCPKIIKAKHGDSGGVRGAAFLNIKG

What was measured:
Experiment in all cases: PK/LD coupled enzyme kinetics (KM app)
Settings in all cases: Mg2+
[1] = substrate: Nc1ncnc2c1ncn2[C@@H]1O[C@H](COP(=O)(O)OP(=O)(O)OP(=O)(O)O)[C@@H](O)[C@H]1O; assay type: biochemical, Plesiomonas shigelloides
[2] = substrate: CC(=O)N[C@@H]1[C@@H](O)[C@H](O)[C@@H](CO)O[C@@H]1O; assay type: biochemical, Vibrio vulnificus
[3] = substrate: Nc1ncnc2c1ncn2[C@@H]1O[C@H](COP(=O)(O)OP(=O)(O)OP(=O)(O)O)[C@@H](O)[C@H]1O; assay type: biochemical, Vibrio vulnificus

Protein	Km [1] [µM]	Km [2] [µM]	Km [3] [µM]
B1	290 ± 20	–	–
B2	–	210 ± 60	41 ± 9
